According to publication PMC4224745, “Modulation, Bioinformatic Screening, and Assessment of Small Molecular Peptides Targeting the Vascular Endothelial Growth Factor Receptor” (Cell Biochemistry and Biophysics, 2014):
No end group written: not given here.

Legend:
VEGFR = experiment: In vitro receptor competition binding assay with 125I-VEGF165 on A549 cells; set-up: species or system human; conditions: for IC50: A549 cells, peptide 0–6,500 nmol/L, 30 min at 4 °C, then 125I-VEGF165 0.37 μg/L for 2 h at 4 °C, γ-counter, duplicate wells, read-out: IC50, competitive VEGFR binding with 125I-VEGF; for Fold increase in affinity for VEGFR relative to VEGF125–136: from the IC50 values of the 125I-VEGF competition on A549 cells
Experimental: A549 cells were cultured in 24-well culture plates at 3 × 10^4 cells/well in duplicate for each treatment. Cultures were maintained at 37 °C in a 5 % CO2 incubator. After 24 h, the culture supernatant was discarded, and cells were washed in PBS, followed by the addition of serum-free culture medium (Hyclone, Logan, UT) before performing an in vitro competitive-binding assay. To each well, VEGF125–136 or optimized peptides were added at the following concentrations: 0, 1.3, 6.5, 32.5, 65, 650, and 6,500 nmol/L. After a 30-min incubation period at 4 °C, 1.85 kBq ^125I-VEGF165 (PerkinElmer,Boston, MA) at a final concentration of 0.37 μg/L was added to each well, and the plates were further incubated for another 2 h at 4 °C. The culture supernatant was discarded, and the cells were washed twice with pre-cooled (4 °C) PBS containing 0.1 % BSA to remove unbound ^125I-VEGF165. The cells were then trypsin digested and quickly filtered through glass fiber filter paper using a multi-channel microfluidic device. Radioactive counts (cpm) on the filter paper were determined using a γ-counter (Chongqing Optical & Electrical Instrument). Peptide competition binding curves were plotted, and IC50 values for each peptide were calculated using SPSS13.0 statistics software.

A549 cells = experiment: Fluorescence microscopy of rhodamine-conjugated peptides binding to A549 cells; type: cell-based, human; conditions: rhodamine-conjugated peptides 45 µmol/L, fixed A549 cells, 2 h at 4 °C (method) or 6 h (results)
Experimental: The highest affinity peptides, NO.15 (QKRKRKKSRKKH) and NO.17 (RKRKRKKSRYIVLS), were conjugated with a fluorochrome, and fluorescence microscopy was used to observe binding to A549 cells as follows. A549 cells were plated on coverslips and grown overnight. The cells were then washed three times with PBS and fixed with 4 % paraformaldehyde for 15 min at room temperature. The cells were incubated at 37 °C for 30 min with 2 % BSA to block nonspecific binding, and subsequently washed three times with PBS. Rhodamine-conjugated peptides (45 µmol/L) were added and incubated with the cells for 2 h at 4 °C. After three washes with PBS, fluorescence microscopy (maximum absorption wavelength of 552 nm) was used to observe cellular staining. Unconjugated rhodamine was used as staining control.

[1] = molecular target: vascular endothelial growth factor receptor (VEGFR) (human (endogenous in A549), UniProt P17948 27-1338); experiment: radioligand binding; competition on A549 cells in 24-well plates, serum-free medium: peptide at 0-6,500 nmol/L for 30 min at 4 °C, then 1.85 kBq 125I-VEGF165 (0.37 μg/L) for 2 h at 4 °C; washed, trypsinised, filtered, γ-counted; IC50 by SPSS13.0; conditions: one partner purified
vascular endothelial growth factor receptor (VEGFR), sequence (P17948 27-1338): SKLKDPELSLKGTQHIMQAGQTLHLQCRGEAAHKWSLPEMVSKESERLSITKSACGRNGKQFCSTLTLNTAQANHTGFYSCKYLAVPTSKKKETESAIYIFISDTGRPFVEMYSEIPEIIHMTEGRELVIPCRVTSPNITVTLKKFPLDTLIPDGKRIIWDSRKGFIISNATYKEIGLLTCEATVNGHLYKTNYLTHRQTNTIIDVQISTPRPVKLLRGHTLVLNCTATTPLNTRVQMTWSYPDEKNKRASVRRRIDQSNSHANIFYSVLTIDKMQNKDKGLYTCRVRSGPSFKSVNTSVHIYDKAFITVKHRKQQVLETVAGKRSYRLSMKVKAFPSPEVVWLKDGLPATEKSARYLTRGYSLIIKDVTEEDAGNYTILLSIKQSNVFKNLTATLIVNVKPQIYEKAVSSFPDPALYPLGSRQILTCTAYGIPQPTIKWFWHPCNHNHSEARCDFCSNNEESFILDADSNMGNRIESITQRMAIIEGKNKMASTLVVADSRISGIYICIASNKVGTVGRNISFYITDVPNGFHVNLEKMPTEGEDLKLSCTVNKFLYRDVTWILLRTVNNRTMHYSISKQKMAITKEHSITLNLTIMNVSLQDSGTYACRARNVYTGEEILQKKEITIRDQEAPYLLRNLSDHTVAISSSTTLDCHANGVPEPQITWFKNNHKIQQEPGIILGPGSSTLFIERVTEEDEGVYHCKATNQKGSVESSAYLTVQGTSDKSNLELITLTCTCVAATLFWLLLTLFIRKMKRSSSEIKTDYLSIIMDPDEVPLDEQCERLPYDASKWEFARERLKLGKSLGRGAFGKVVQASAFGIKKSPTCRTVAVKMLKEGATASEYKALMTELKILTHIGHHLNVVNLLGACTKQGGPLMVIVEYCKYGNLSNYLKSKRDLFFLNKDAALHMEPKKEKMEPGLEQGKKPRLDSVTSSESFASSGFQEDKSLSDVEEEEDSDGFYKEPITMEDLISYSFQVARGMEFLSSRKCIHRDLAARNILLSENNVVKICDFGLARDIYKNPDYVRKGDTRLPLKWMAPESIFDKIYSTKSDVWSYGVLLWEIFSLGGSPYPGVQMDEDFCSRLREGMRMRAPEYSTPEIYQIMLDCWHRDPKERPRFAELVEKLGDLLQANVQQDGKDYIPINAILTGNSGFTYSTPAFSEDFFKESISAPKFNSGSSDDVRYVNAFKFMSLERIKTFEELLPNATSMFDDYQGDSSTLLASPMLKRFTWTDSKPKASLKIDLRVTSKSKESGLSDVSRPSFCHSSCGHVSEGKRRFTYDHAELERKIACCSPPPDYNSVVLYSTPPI

Row | Molecule | IC50 [1] [nM] | other results
1 | QKRKRKKSRKKH [compound 15] |  | IC50 (VEGFR): 80 ± 7 nM; Fold increase in affinity for VEGFR relative to VEGF125–136 (VEGFR; listed as QKRKRKKSRKKH): 6 fold and ≈ 6 fold; Binding sites / fluorescent staining on A549 cells (A549 cells): plasma membrane and perinuclear cytoplasm
2 | RKRKRKKSRYIVLS [compound 17] |  | IC50 (VEGFR): 185 ± 14 nM; Fold increase in affinity for VEGFR relative to VEGF125–136 (VEGFR): 2.5 fold; Binding sites / fluorescent staining on A549 cells (A549 cells): plasma membrane and perinuclear cytoplasm
3 | rhodamine [unconjugated rhodamine, reference compound] |  | Binding sites / fluorescent staining on A549 cells (A549 cells): did not result significant levels of fluorescent staining
4 | QKRKRKKSRYPLS | 542 ± 16 | 
5 | QKRKRKKSRYPK | 602 ± 19 | 
6 | QKRKRKKSRYKS (also called Control) [VEGF_(125–136)] | 464 ± 12 | 
7 | QKRKRKKSRYRK | 405 ± 20 | 
8 | QFRKRKKSRYKS | 665 ± 38 | 
9 | QFRKRKKSRYPS | 4210 ± 76 | 
10 | QKRKRKKSRYKK | 571 ± 40 | 
11 | RKRKRKKSRKKH | 283 ± 9 | 
12 | QFRKRKKSRYLS | 694 ± 29 | 
13 | IVFKRKRKKSRYLS | 637 ± 25 | 
14 | QHKRKRKKSRIVL | 424 ± 37 | 
15 | KKRKRKKSRKRK | 315 ± 11 | 
16 | QFRKRKKSRYKF | 323 ± 17 | 

The remaining molecules from weak to strong by IC50 [1], led by results:

Row | IC50 [1] [nM] | Molecule | other results
17 | 280 ± 13 | QKRKRKKSRYKY | 
18 | 273 ± 33 | KFRKRKKSRYIV | 
19 | 273 ± 19 | QFRKRKKSRYPK | 
20 | 252 ± 16 | QFRKRKKSRYKH | 
21 | 188 ± 25 | FFRKRKKSRYKS | 
22 | 185 ± 14 | RKRKRKKSRYIVLS (also called NO.17) | 
23 | 92 ± 9 | QFRKRKKSRWKS | 
24 | 80 ± 7 | QKRKRKKSRKKH (also called NO.15) | 
